# Reference: patent publication US20190127434
# Test system: K6UbKMRC011
substance,measurement,value
USP1 (ubiquitin-specific protease 1),"cleavage by USP1, SDS-PAGE analysis (10 mg/L enzyme, 37 C, 12 hours)",most of the refolded K6UbKMRC011 was cleaved by USP1 and separated into K6Ub and KMRC011
same,"cleavage by ubiquitin cleavage enzymes, SDS-PAGE analysis (10 mg/L enzyme, 37 C, 12 hours)",the refolded K6UbKMRC011 was cleaved by the ubiquitin cleavage enzymes shown in Table 2 and correctly separated into K6Ub and KMRC011
same,"on-column cleavage, amino terminal sequence analysis of the released KMRC011",the USPI clearly cleaved the immediate side of K6Ub of K6UbKMRC011 so that only KMRC011 was separated and purified
